Laboratory results from patent US20250092426, “CAS ENDONUCLEASES AND RELATED METHODS” (Flagship Pioneering Innovations VII, LLC, published 2025).

Target: T1, CasEnd-37 (synthetic construct)
T1 chain: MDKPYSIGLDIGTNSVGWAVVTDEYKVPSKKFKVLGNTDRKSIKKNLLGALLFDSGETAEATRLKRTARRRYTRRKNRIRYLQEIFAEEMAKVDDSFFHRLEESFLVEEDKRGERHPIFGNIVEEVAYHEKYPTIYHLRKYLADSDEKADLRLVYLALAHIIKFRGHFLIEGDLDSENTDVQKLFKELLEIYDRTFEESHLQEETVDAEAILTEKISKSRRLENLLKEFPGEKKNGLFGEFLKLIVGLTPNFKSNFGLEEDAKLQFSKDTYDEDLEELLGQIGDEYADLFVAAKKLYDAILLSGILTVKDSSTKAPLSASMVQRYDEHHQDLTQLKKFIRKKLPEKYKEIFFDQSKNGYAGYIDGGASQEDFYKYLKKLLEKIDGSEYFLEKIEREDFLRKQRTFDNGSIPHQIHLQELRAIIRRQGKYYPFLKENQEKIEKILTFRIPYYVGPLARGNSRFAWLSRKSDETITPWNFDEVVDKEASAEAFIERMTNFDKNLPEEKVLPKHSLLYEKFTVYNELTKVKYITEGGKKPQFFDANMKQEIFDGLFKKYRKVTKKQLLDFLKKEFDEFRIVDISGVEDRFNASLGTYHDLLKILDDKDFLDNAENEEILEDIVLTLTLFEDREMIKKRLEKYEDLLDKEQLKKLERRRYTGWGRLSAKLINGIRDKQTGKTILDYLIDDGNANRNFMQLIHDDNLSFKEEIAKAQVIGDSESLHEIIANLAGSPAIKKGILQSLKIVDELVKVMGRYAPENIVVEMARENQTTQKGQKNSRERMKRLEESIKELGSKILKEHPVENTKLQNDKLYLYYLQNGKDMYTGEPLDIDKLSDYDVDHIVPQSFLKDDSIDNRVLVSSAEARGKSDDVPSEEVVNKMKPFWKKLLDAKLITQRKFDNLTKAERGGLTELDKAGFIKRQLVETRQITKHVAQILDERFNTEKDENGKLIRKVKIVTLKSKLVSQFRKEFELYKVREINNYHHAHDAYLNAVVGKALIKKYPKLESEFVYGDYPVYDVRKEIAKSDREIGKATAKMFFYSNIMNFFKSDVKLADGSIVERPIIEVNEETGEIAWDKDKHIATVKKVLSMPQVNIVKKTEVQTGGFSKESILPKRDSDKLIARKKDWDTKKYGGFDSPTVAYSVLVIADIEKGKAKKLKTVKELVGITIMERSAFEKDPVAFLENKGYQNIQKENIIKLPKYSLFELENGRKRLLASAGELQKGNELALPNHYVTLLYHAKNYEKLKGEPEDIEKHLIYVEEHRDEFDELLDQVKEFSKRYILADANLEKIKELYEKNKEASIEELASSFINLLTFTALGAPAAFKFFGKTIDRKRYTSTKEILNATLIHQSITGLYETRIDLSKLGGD
Assay: cell_activity; +++; HEK293T; PAM not stated
Procedure: The ability of the candidate endonucleases, including endonucleases 1-38 (CasEnds 1-38) (set forth in Table 1 and SEQ ID NOS: 1-38, respectively), to mediate target nucleic acid editing was assessed utilizing a blue fluorescent protein (BFP) to green fluorescent protein (GFP) conversion assay, wherein programmed nucleotide editing of the BFP gene was measured by the expression of GFP (signifying the conversion of […] via the programmed nucleotide edit in the BFP gene). The conversion assay was conducted utilizing the reverse transcriptase-based system (as described above in Example 2) comprising a template RNA (designed to convert BFP to GFP) and a fusion protein comprising a retroviral reverse transcriptase and the individual subject Cas endonuclease. The amino acid sequence of the base portion of the fusion protein (without the individual subject Cas endonuclease) is set forth in Table 7 (SEQ ID NO: 43).
Briefly, 200 ng of plasmid DNA encoding the subject fusion protein (containing one of the subject CasEnds) and 200 ng of template RNA (in plasmid format) were added to 25 μL SF buffer containing 250,000 HEK293T BFP-expressing cells. Nucleofection was mediated utilizing program DS-150. The day of nucleofection was marked as day 0. At day 4, the cells were harvested and analyzed by flow cytometry to assess the level of BFP and GFP expression in HEK293T cells. Cells having GFP signal were defined as having undergone a successful editing event, and the percent of cells that were GFP+ on day 4 was used to determine the performance of each Cas endonuclease.

B1: BFP-to-GFP template RNA ; BFP reporter protospacer (ssRNA ; dsDNA)
RNA: GCCGAAGCACUGCACGCCGUGUUUUAGAGCUAGAAAUAGCAAGUUAAAAUAAGGCUAGUCCGUUAUCAACUUGAAAAAGUGGCACCGAGUCGGUGCACCCUGACGUACGGCGUGCAGUGCUU
DNA 1: GCCGAAGCACTGCACGCCGT
DNA 2: ACGGCGTGCAGTGCTTCGGC
For B1, the activity was ≥ 100 % of reference.
